Consider one substance from US20030119169A1.

The target of this experiment is truncated Mch3α (amino acids 199-303), p12 subunit (human) (UniProt P55210). As to the kind of experiment: cell-based or functional assay.
Chain of truncated Mch3α (amino acids 199-303), p12 subunit (human) (P55210 199-303): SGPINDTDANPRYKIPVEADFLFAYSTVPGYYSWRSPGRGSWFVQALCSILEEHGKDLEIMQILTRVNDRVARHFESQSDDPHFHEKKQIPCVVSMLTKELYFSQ

Regarding “CPP32-p20 subunit (from UniProt P42574 29-175) (enzyme)”, the apoptotic Sf9 cells on coexpression (percentage of cells) was more than 50%.
